Source: the supplement of paper PMC7125110
± gives the standard error. For some of these results: This sample holds only a part of the variants without activity.

B1: glmS ribozyme (parent)
chain: AUAAAAGCGCCAGAACUACAGAAAUGUAGUUGACGAGGAGGAGGUUUAUCGAAUUUUCGGCGGAUGCCUCCAAA

Columns and labels:
Settings in all cases: with glucosamine-6-phosphate
glucosamine-6-phosphate [1] = variants of: B1; assay: kcat; higher = faster cleavage; RNA array
Method in brief: (§1)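 Weighted Michaelis–Menten fits across concentrations supplied kcat and KM, based on kobs from one- or two-exponential decay fits to normalised per-tile medians. The data came from barcoded ribozyme variants transcribed in situ by E. coli RNA polymerase on sequenced MiSeq chips and tracked at 37 °C by a hybridised Cy3 probe. Glucosamine-6-phosphate (40 μM to 10 mM) in HEPES/KCl/Mg(OAc)2 buffer was flowed in.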

glucosamine-6-phosphate [2] = variants of: B1; assay: KM; higher = weaker cofactor use; RNA array
Method in brief: as §1

glucosamine-6-phosphate [3] = variants of: B1; assay: self-cleavage kobs at 40 uM GlcN6P; higher = faster cleavage; RNA array
Method in brief: as §1

glucosamine-6-phosphate [4] = variants of: B1; assay: self-cleavage kobs at 160 uM GlcN6P; higher = faster cleavage; RNA array
Method in brief: as §1

glucosamine-6-phosphate [5] = variants of: B1; assay: self-cleavage kobs at 640 uM GlcN6P; higher = faster cleavage; RNA array
Method in brief: as §1

glucosamine-6-phosphate [6] = variants of: B1; assay: self-cleavage kobs at 2500 uM GlcN6P; higher = faster cleavage; RNA array
Method in brief: as §1

glucosamine-6-phosphate [7] = variants of: B1; assay: self-cleavage kobs at 10000 uM GlcN6P; higher = faster cleavage; RNA array
Method in brief: as §1

Variant	kcat (glucosamine-6-phosphate [1])	KM (glucosamine-6-phosphate [2])	self-cleavage kobs at 40 uM GlcN6P (glucosamine-6-phosphate [3])	self-cleavage kobs at 160 uM GlcN6P (glucosamine-6-phosphate [4])	self-cleavage kobs at 640 uM GlcN6P (glucosamine-6-phosphate [5])	self-cleavage kobs at 2500 uM GlcN6P (glucosamine-6-phosphate [6])	self-cleavage kobs at 10000 uM GlcN6P (glucosamine-6-phosphate [7])
A12U U31A	0.0283 ± 0.0065 s⁻¹	2890 ± 880 µM	0.000416 ± 7.3e-05 s⁻¹	0.00177 ± 0.00045 s⁻¹	0.00457 ± 0.0011 s⁻¹	0.0106 ± 0.0026 s⁻¹	0.0257 ± 0.0049 s⁻¹
A12U U31G	0.0183 ± 0.0087 s⁻¹	–	0.000567 ± 5.6e-05 s⁻¹	0.00142 ± 0.00026 s⁻¹	0.00439 ± 0.00076 s⁻¹	0.00841 ± 0.0023 s⁻¹	0.0262 ± 0.0045 s⁻¹
A12G C70A	0.000118 ± 8.6e-06 s⁻¹	1110 ± 270 µM	–	–	4.35e-05 ± 7.9e-06 s⁻¹	7.34e-05 ± 1.3e-05 s⁻¹	0.000108 ± 9.4e-06 s⁻¹
A12G A39G	0.0017 ± 0.00036 s⁻¹	4960 ± 1500 µM	–	3.92e-05 ± 9.9e-06 s⁻¹	0.00022 ± 2.9e-05 s⁻¹	0.000622 ± 9e-05 s⁻¹	0.00109 ± 0.00014 s⁻¹
A12G A39U	0.000523 ± 9.7e-05 s⁻¹	4350 ± 1400 µM	–	–	6.01e-05 ± 1.2e-05 s⁻¹	0.000246 ± 4.1e-05 s⁻¹	0.00035 ± 4.6e-05 s⁻¹
A12U G32A	0.000902 ± 5.6e-05 s⁻¹	2110 ± 200 µM	–	6.52e-05 ± 9.5e-06 s⁻¹	0.000203 ± 2.1e-05 s⁻¹	0.000498 ± 5.1e-05 s⁻¹	0.000735 ± 0.00013 s⁻¹
A12U C61A G63C C70U	3.89e-05 ± 1.1e-05 s⁻¹	–	–	3.45e-05 ± 1.3e-05 s⁻¹	–	4.79e-05 ± 1.7e-05 s⁻¹	–
A12G A14G	0.00308 ± 0.00041 s⁻¹	4770 ± 950 µM	2.51e-05 ± 6.2e-06 s⁻¹	8.41e-05 ± 1.3e-05 s⁻¹	0.000405 ± 4.5e-05 s⁻¹	0.00121 ± 0.00015 s⁻¹	0.00203 ± 0.00016 s⁻¹
G13A G41U	5.73e-05 ± 8.7e-06 s⁻¹	–	< 1e-05 s⁻¹	–	–	–	–
G13A G41A	6.21e-05 ± 2.2e-06 s⁻¹	1770 ± 270 µM	–	–	–	3.77e-05 ± 1.2e-05 s⁻¹	5.25e-05 ± 8.1e-06 s⁻¹
A12C G44A A53U	0.000479 ± 4.3e-05 s⁻¹	4570 ± 530 µM	–	–	5.92e-05 ± 1.6e-05 s⁻¹	0.000169 ± 4.4e-05 s⁻¹	–
G13A U31A G32A C50G C67G	4.8e-05 ± 1.5e-05 s⁻¹	–	–	–	4.97e-05 ± 2.2e-05 s⁻¹	5.25e-05 ± 1.8e-05 s⁻¹	–
A12C G37U	< 1e-05 s⁻¹	–	< 1e-05 s⁻¹	–	–	–	–
A12U U31G U47C	0.000915 ± 0.00036 s⁻¹	–	–	–	0.000923 ± 0.00024 s⁻¹	0.00136 ± 0.00036 s⁻¹	0.000748 ± 0.00013 s⁻¹
G13A U54G	0.000682 ± 7.9e-05 s⁻¹	2540 ± 550 µM	–	5.52e-05 ± 1.8e-05 s⁻¹	0.000123 ± 2.4e-05 s⁻¹	0.000363 ± 6.1e-05 s⁻¹	0.000537 ± 7.4e-05 s⁻¹
G13A U54A	0.000832 ± 0.00029 s⁻¹	–	5.62e-05 ± 2.4e-05 s⁻¹	5.51e-05 ± 1.6e-05 s⁻¹	0.000147 ± 3.8e-05 s⁻¹	0.000299 ± 5.6e-05 s⁻¹	0.000709 ± 0.0001 s⁻¹
